The record followed here is patent US20230295316A1 (FRED HUTCHINSON CANCER CENTER, published 2023).

For assay [1], the target named is T1, Hs_CD123_6His-Avi (CD123 ECD-His-Avi fusion protein) (human, UniProt P26951 19-303).
T1 construct: The signal peptide is marked only by bold type, so its limits cannot be read here and were not guessed; also called His-Avi tagged peptide encompassing the ECD of human CD123
T1 sequence: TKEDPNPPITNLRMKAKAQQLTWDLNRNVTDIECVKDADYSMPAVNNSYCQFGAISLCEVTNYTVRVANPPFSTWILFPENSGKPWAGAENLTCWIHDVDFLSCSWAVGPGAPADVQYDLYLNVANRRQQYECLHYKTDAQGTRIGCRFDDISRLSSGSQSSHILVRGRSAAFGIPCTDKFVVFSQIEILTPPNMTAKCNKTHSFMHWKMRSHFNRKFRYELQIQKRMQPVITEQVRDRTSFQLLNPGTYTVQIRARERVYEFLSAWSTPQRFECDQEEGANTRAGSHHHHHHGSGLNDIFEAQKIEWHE
The experiment in a line: SPR (Biacore T-100), univalent affinity; antibody captured on the CM4 chip, human CD123 ECD as analyte. How it is done: FIGS. 21A-21B. Surface plasmon resonance (Biacore T-100) analyses were performed to rigorously/precisely determine univalent binding affinities of recombinant, fully human versions of the anti-human CD123 monoclonal antibodies 1B5, 1D9, and 1E3, using human IgG1 (FIG. 21A) and human IgG4 frameworks (FIG. 21B). For these experiments, a peptide encoding the complete extracellular portion of human CD123 was used, and the antibodies were captured on the biosensor chip (CM4) via a Fc gamma-specific goat anti-human IgG and amine coupling.

Assay [2] has as its target T2, human interleukin-3 (IL-3) receptor alpha-chain (CD123), on cells (human, UniProt P26951 19-378).
T2 construct: whole, on cells; also called human CD123
Put plainly: flow cytometry (APC-A), mAb reacted with 5, 10 or 15 equivalents of B10 + secondary antibody, RS4;11 cells overexpressing human CD123 [CONT.]. The text has this: FIG. 4. Parental CD123-negative human RS4;11 ALL cells and RS4;11 cells engineered to overexpress human CD123 were used for flow cytometric phenotyping of a series of anti-CD123 mAbs (11F11, 5G4, 10C4, 1H8) that were either left unmodified or were reacted with 5, 10, or 15 equivalents of B10. A secondary mAb-only control is also shown.
(In general: Flow cytometry measures light scatter and fluorescence of single cells or particles in a stream.)

B1: 123-ATX1E3, fully human recombinant antibody, human IgG1 framework (antibody)
heavy: not shown
light: EIVLMQSPGTLSLSPGERVTLSCRASQTFSSSYLAWYQQKPGQAPRLLIYGASSRATGIPDRFSGSGSGTDFTLTINRLEPEDFAVYYCQQYGRSPFTFGPGTKLDIKRTVAAPSVFIFPPSDEQLKSGTASVVCLLNNFYPREAKVQWKVDNALQSGNSQESVTEQDSKDSTYSLSSTLTLSKADYEKHKVYACEVTHQGLSSPVTKSFNRGEC
notes: also called 1E3 (human IgG1)
In assay [1], B1 came in with a dissociation constant Kd of 0.652 nM, a koff of 6.15e-05 s⁻¹ and an on-rate (kon) of 94400 M⁻¹ s⁻¹.

B2: 123-ATX1E3, fully human recombinant antibody, human IgG4 framework (antibody)
heavy: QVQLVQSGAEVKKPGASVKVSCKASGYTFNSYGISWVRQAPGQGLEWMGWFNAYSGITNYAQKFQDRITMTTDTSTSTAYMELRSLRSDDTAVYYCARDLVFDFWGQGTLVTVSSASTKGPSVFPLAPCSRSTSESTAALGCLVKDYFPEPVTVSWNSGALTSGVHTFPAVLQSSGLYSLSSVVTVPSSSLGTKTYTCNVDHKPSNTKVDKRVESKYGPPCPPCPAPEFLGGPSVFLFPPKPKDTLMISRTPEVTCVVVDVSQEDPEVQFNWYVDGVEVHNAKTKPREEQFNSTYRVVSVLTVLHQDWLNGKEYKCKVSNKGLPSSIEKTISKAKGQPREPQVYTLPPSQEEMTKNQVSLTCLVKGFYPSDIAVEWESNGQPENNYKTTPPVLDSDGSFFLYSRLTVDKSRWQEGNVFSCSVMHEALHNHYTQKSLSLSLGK
light: EIVLMQSPGTLSLSPGERVTLSCRASQTFSSSYLAWYQQKPGQAPRLLIYGASSRATGIPDRFSGSGSGTDFTLTINRLEPEDFAVYYCQQYGRSPFTFGPGTKLDIKRTVAAPSVFIFPPSDEQLKSGTASVVCLLNNFYPREAKVQWKVDNALQSGNSQESVTEQDSKDSTYSLSSTLTLSKADYEKHKVYACEVTHQGLSSPVTKSFNRGEC
notes: also called 1E3 (human IgG4)
As to B2, in assay [1], the dissociation constant (Kd) worked out at 0.792 nM, the koff was found to be 7.02e-05 s⁻¹ and the kon came out at 88600 M⁻¹ s⁻¹.

B3: 5G4 reacted with B10 (antibody, V domains shown)
VH: DVQLQESGPGLVKPSQSLSLTCTVTGYSITSDYVWNWIRQFPGNKLEWMAYISYSGTTSYNPSLSSRISITRDTSSNQFFLQLNSVTSEDTATYYCARGLDYWGQGTSVTVSS
VL: QIVLTQSPAIMSVSLGERVTMTCTASSSVTSSYFHWYQQKPGSSPKLWIYSTSNLASGVPARFSGSGSGTSYSLTISSMEAEDAATYYCHQYHRSPRTFGGGTKLEIK
modifications: B10 on lysine amines, positions not given; B10 (isothiocyantophenethyl-ureido-closo-decaborate(2-)) on lysine amines, positions not given
notes: also called B10-conjugated 5G4
For the molecule B3, in assay [2], the binding result was “binds”.

B4: 123-ATX1D9, fully human recombinant antibody, human IgG1 framework (antibody)
heavy: not shown
light: QSALTQPPSASGSPGQSVTISCTGTSSDVGGYNYVSWYQQHPGKAPKIMIYEVNKRPAGVPDRFSGSKSGNTASLTVSGLQAEDEAHYYCNSYTDSNNLIFGGGTKLTVLGQPKANPTVTLFPPSSEELQANKATLVCLISDFYPGAVTVAWKADGSPVKAGVETTKPSKQSNNKYAASSYLSLTPEQWKSHRSYSCQVTHEGSTVEKTVAPTECS
notes: Lambda light chain; also called 1D9 (human IgG1)
In assay [1], B4 yielded a Kd of 0.563 nM, a koff of 3.68e-05 s⁻¹ and a kon of 65500 M⁻¹ s⁻¹.

B5: 123-ATX1D9, fully human recombinant antibody, human IgG4 framework (antibody)
heavy: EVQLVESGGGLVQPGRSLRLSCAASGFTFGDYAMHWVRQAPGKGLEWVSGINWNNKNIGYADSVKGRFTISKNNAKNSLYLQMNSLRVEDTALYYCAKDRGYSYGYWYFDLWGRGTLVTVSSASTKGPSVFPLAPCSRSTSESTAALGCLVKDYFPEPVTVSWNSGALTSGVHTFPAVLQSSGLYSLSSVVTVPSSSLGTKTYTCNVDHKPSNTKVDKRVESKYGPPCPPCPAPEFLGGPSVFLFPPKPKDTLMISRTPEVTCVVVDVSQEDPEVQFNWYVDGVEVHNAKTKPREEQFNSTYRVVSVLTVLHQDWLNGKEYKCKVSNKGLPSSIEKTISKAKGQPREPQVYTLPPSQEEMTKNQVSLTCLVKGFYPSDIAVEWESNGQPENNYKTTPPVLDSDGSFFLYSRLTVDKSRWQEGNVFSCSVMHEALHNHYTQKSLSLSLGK
light: QSALTQPPSASGSPGQSVTISCTGTSSDVGGYNYVSWYQQHPGKAPKIMIYEVNKRPAGVPDRFSGSKSGNTASLTVSGLQAEDEAHYYCNSYTDSNNLIFGGGTKLTVLGQPKANPTVTLFPPSSEELQANKATLVCLISDFYPGAVTVAWKADGSPVKAGVETTKPSKQSNNKYAASSYLSLTPEQWKSHRSYSCQVTHEGSTVEKTVAPTECS
notes: Lambda light chain; also called 1D9 (human IgG4)
Consider B5, for which, in assay [1], binding was characterised by a dissociation constant (Kd) of 0.594 nM, the koff was 4.19e-05 s⁻¹ and the kon came to 70600 M⁻¹ s⁻¹.

B6: 1H8 reacted with B10 (antibody, V domains shown)
VH: EVKLVESEGGLVQPGSSMKLSCTASGFTFSDYYMAWVRQVPEKGLEWVANIDDEGSSTYYLDSLKSRFIISRDNAKNILYLQMTSLKSEDTATYYCARGTTQTSFFVHWGQGTLVTVSA
VL: DIVLTQSPASLAVSLGQRATISCRASQSVSSSSYSFMHWYQKKPRQPPKLLIKYASTLEAGVPARFSGSGSGTDFTLNIHPVEEEDTATYYCQHSWEIPYTFGGGTKLEIK
modifications: B10 on lysine amines, positions not given; B10 (isothiocyantophenethyl-ureido-closo-decaborate(2-)) on lysine amines, positions not given
notes: also called B10-conjugated 1H8
In the case of B6, in assay [2], the binding result is listed as “binds”.

B7: 10C4-B10 (B10-conjugated 10C4 anti-CD123 mAb) (antibody, V domains shown)
VH: QVQLKESGPGLVAPSQNLSITCTVSGFSLTTYDINWIRQPPGKGLEWLGVIWTGGGTNYNSAFMSRLSISKDNSKSQVFLKMNSLQTDDTAMYYCVRGDTYHYALDFWGQGTSVTVSS
VL: DIVMSQSPSSLAVSAGEKVTMSCKSSQSLLSSGTRKNYLAWYQQKPGQSPKLLIYWASTRESGVPDRFTGSGSGTDFTLTISSVQAEDLAVYYCKQSYILFTFGSGTKLEIK
modifications: B10 on lysine amines, positions not given; B10 (isothiocyantophenethyl-ureido-closo-decaborate(2-)) on lysine amines, positions not given
On to B7, for which the binding result in assay [2] is on record as “binds”.

B8: 11F11 reacted with B10 (antibody, V domains shown)
VH: EVTLVESGGGLEQPGGSLSLSCAASGFTFTDYYMSWVRQPPGKALEWLALIRNKANGYTTEYSASVKGRFTISRDNSQSILYLQMNALRAEDSATYYCARQVRNYYGYEEDALDYWGQGTSVTVSS
VL: DIVLTQSPASLAVSLGQRATISCRASESLDFYGNSFMHWYQQKSGQPPKLLISRASNLESGIPPRFSGSGSRTDFTLTIDPVEADDVATYYCQQSYEDPYTFGGGTKLEIK
modifications: B10 on lysine amines, positions not given; B10 (isothiocyantophenethyl-ureido-closo-decaborate(2-)) on lysine amines, positions not given
notes: also called B10-conjugated 11F11
Take B8: the binding result in assay [2] is listed as “binds”.

As a reminder, the Kd is the constant that tells how readily two partners part at equilibrium. Lower therefore signals tighter binding. By koff is commonly meant the first-order rate constant of dissociation. The term kon denotes a measure of how fast the partners come together.
